Results reported in patent publication US20190077844A1 (published 2019).
Where a chain is given by its changes, count along the chain named.

B1: ADX_6077_F02 DG→DA mutant, alkylated (designed binder)
chain: GVSDVPRDLEVVAATPTSLLISWSDDYHAHRYYRITYGETGGNSPVQEFTVPGEHVTATISGLKPGVDYTITVYAVTYDAEKAATDWSISINYRTPC
modifications: C-terminal cysteine alkylated
notes: also called P1-055660
B2: ADX_6077_F02 DG→AG mutant, alkylated (designed binder)
chain: B1 chain with D79A, A80G
modifications: C-terminal cysteine alkylated
notes: also called P1-055669
B3: ADX_6077_F02 DG→DL mutant, alkylated (designed binder)
chain: B1 chain with A80L
modifications: C-terminal cysteine alkylated
notes: also called P1-055671
B4: ADX_6077_F02 DG→DS mutant, alkylated (designed binder)
chain: B1 chain with A80S
modifications: C-terminal cysteine alkylated
notes: also called P1-055667
B5: ADX_6077_F02 DG→DV mutant, alkylated (designed binder)
chain: B1 chain with A80V
modifications: C-terminal cysteine alkylated
notes: also called P1-055672
B6: ADX_6077_F02 DG→EG mutant, alkylated (designed binder)
chain: B1 chain with D79E, A80G
modifications: C-terminal cysteine alkylated
notes: also called P1-055673
B7: ADX_6077_F02 DG→GG mutant, alkylated (designed binder)
chain: B1 chain with D79G, A80G
modifications: C-terminal cysteine alkylated
notes: also called P1-055670
B8: ADX_6077_F02 DG→SG mutant, alkylated (designed binder)
chain: VSDVPRDLEVVAATPTSLLISWSDDYHAHRYYRITYGETGGNSPVQEFTVPGEHVTATISGLKPGVDYTITVYAVTYSGEKAATDWSISINYRTPC
modifications: C-terminal cysteine alkylated
notes: also called P1-055668

The binders below were run against T1, Recombinant murine glypican-3 (aa 25-557) (R&D Systems) (murine, UniProt Q8CFZ4 25-557) (assay: SPR 1-point off-rate, ratio to parental ADX_6077_F02).
T1 construct: also called muGPC3; murine GPC3
Experimental: (§1) Surface plasmon resonance (SPR) was performed to calculate off-rates (kd) and binding affinities of α-GPC3 adnectins and tubulysin-conjugated AdxDCs using a Biacore T100 instrument (GE Healthcare). […] SPR experiments were conducted at 37° C. using HBS-P+(10 mM HEPES, 150 mM NaCl, 0.05% (v/v) Surfactant P20, pH 7.4) running buffer (GE Healthcare). […] For off-rate measurements, single 200 nM adnectin/AdxDC concentrations were injected using identical conditions. One 30s injection of 10 mM glycine pH 1.7 was used to remove bound adnectin and regenerate the GPC₃ surfaces between assay cycles.
(§2) Rate constants kₐ (kₒₙ) and kd (koff) were derived from reference-subtracted sensorgrams fit to a 1:1 binding model in Biacore T100 Evaluation Software v2.0.4 (GE Healthcare). The affinity constant, KD was calculated from the ratio of rate constants kd/kₐ.
(§3) One-hundred to one-hundred-fifty milligrams of each of the eight mutants was made, purified and alkylated as previously above. Three to five milligrams of each of eight alkylated variants at 1-3 mg/mL were subjected to SEC, DSC, GPC3 binding (SPR 1 pt off-rates), MS and HIC.

T1 sequence (Q8CFZ4 25-557 limits assumed, form in doubt): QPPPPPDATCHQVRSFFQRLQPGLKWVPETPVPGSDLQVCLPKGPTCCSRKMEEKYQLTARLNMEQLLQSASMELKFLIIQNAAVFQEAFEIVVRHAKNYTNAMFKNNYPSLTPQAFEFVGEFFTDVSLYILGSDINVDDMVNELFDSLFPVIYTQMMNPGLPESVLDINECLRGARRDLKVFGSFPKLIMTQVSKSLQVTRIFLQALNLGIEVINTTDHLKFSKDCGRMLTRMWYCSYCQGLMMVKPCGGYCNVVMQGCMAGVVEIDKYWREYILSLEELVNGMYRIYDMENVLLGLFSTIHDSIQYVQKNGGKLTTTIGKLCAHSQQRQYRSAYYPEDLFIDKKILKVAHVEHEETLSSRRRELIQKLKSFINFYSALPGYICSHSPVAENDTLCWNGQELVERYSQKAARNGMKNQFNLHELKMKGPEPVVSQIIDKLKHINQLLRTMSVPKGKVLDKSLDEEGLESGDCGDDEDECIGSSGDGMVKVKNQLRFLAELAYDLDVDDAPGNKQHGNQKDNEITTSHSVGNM

Binder	muGPC3 koff (mut/par)
B1	3.7 ratio mutant/parent
B2	5.5 ratio mutant/parent
B3	3.1 ratio mutant/parent
B4	3.3 ratio mutant/parent
B5	7 ratio mutant/parent
B6	5.1 ratio mutant/parent
B7	12 ratio mutant/parent
B8	4.8 ratio mutant/parent

These binders were tested against T2, Recombinant human glypican-3 (aa 1-559), His-tagged (R&D Systems) (human, UniProt P51654 25-559) in the same assay as above.
T2 construct: also called huGPC3; human GPC3
Experimental: as §1, §2, §3

T2 sequence (P51654 other isoform, or with tags, fused parts or gaps): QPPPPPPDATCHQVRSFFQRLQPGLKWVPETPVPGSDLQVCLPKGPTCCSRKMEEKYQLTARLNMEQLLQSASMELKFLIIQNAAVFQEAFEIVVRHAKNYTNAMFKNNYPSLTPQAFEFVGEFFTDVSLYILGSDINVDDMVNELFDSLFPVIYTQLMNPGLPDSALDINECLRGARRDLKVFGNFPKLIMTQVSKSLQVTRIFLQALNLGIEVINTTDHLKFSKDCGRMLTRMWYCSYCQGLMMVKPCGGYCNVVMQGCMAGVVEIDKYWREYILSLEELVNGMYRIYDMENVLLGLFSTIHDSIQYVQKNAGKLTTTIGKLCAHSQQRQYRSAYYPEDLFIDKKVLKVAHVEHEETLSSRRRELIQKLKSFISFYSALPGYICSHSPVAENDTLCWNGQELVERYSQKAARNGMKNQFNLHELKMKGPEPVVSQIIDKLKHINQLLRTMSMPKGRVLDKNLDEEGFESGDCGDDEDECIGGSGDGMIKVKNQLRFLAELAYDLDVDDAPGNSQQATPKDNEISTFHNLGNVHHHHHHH

Binder	huGPC3 koff (mut/par)
B1	3.9 ratio mutant/parent
B2	5.9 ratio mutant/parent
B3	3.6 ratio mutant/parent
B4	3.5 ratio mutant/parent
B5	7.9 ratio mutant/parent
B6	5.4 ratio mutant/parent
B7	14 ratio mutant/parent
B8	5.2 ratio mutant/parent

What follows are binders tested against T3, Human glypican-3 on cells (Huh7, Hep3B, H446, HepG2; Hep3B xenograft tissue) (human, UniProt P51654 25-554) (assay: flow cytometry on Huh7 cells, EC50 ratio to parent Adnectin).
T3 construct: Endogenous GPC3 of human tumor cell lines; also called huGPC3 on cells; GPC3 receptor
Experimental: The binding of DG variants to huGPC3 in DG GPC3 AdxDCs mutants were evaluated by flow cytometry for binding to Huh7 carcinoma cells grown in DMEM media with 10% FBS. Cells were harvested using Versene, an EDTA cell dissociation solution from Lonza, Cat. #17-711E. Tumor cells (1E5 cells/reaction) were suspended in FACS buffer (PBS, 1% BSA, 0.05% Na Azide) and mixed with a serial dilution of AdxDC for one hour on ice. Cells were washed three times with FACS buffer, and bound AdxDC was detected with an in house anti-scaffold monoclonal Ab and PE-conjugated Antibody from (RnD Systems), cat#NL007, and read on a flow cytometer.

T3 sequence (P51654 25-554 limits assumed): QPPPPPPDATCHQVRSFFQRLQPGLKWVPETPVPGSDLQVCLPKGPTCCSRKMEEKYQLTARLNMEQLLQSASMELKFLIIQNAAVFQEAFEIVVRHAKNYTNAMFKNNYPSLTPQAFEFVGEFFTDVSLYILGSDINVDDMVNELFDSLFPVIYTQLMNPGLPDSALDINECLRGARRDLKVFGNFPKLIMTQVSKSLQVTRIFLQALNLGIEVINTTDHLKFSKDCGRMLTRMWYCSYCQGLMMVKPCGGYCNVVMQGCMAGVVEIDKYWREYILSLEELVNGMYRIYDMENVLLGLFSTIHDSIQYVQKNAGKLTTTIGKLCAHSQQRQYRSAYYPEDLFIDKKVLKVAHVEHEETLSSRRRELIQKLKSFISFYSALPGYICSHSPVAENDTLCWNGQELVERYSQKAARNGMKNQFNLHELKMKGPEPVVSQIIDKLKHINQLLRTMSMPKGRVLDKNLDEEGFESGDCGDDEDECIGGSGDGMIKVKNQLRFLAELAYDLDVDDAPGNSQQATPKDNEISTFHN

Binder	huGPC3 on cells EC50 (mutant/parent)
B1	1.3 ratio mutant/parent
B2	1.1 ratio mutant/parent
B3	1.7 ratio mutant/parent
B4	1.4 ratio mutant/parent
B6	1.6 ratio mutant/parent
B8	1.1 ratio mutant/parent
